Tests used:
Sea4-TAP = molecular target: T1, Sea4-TAP (S. cerevisiae (endogenous in yeast …, UniProt P38164 1-1038)); assay: cryo-EM structure; endogenous SEAC purified from yeast via Sea4-TAP (IgG Dynabeads, TEV elution in 20 mM HEPES-NaOH pH 7.4, 300 mM NaCl, 2 mM DTT), on graphene-oxide-coated grids; conditions: both partners purified
T1 construct: Sea4, S. cerevisiae, endogenous subunit of the SEAC (SEACAT, core), TAP-tagged; Captured by the TAP tag on IgG beads; the complex was released with TEV protease before SDS-PAGE and cryo-EM; Written 'Sea4-TAP'; Four copies in the SEAC; source: endogenous, yeast cells expressing Sea4-TAP; in lysate, purified on IgG-coupled Dynabeads and eluted with TEV protease
T1 sequence (looked up): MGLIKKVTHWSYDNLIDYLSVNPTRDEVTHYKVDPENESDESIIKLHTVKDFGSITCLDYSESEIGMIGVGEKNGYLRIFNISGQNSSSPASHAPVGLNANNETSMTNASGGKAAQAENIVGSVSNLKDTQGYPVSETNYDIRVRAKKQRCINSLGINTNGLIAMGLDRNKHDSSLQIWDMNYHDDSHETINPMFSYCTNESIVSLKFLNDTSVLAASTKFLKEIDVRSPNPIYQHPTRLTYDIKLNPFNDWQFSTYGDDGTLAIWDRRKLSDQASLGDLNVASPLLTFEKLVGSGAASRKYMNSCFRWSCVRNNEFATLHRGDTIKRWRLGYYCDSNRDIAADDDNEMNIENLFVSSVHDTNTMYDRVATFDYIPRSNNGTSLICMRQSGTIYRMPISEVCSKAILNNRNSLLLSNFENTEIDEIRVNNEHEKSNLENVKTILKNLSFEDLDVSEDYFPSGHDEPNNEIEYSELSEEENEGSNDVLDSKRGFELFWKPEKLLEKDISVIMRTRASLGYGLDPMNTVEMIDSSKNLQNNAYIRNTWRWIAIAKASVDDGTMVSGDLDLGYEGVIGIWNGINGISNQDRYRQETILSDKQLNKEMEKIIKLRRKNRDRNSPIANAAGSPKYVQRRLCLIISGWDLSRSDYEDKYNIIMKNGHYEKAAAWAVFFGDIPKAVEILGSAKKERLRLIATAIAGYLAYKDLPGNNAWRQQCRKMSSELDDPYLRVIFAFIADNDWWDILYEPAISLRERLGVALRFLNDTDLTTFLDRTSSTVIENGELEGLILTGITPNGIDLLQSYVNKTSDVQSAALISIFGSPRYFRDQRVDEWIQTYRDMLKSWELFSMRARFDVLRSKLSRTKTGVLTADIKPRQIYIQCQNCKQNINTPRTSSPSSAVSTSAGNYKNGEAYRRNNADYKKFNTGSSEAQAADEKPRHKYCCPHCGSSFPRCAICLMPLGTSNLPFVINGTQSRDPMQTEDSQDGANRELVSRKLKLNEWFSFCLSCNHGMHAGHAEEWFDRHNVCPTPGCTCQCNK

Sea3 = molecular target: T2, Sea3 (S. cerevisiae (endogenous in yeast …, UniProt Q03897 1-1148)); assay: as above; conditions: both partners purified
T2 construct: Sea3, S. cerevisiae, endogenous subunit of the SEAC; Sea3^SIP (Sea3^Nter) lies in the wing, Sea3^SAP (Sea3^Cter) in the core; Native protein of the purified complex; two copies in the SEAC; source: endogenous, yeast cells expressing Sea4-TAP; in lysate and co-purified with Sea4-TAP (IgG Dynabeads, TEV elution)
T2 sequence (looked up): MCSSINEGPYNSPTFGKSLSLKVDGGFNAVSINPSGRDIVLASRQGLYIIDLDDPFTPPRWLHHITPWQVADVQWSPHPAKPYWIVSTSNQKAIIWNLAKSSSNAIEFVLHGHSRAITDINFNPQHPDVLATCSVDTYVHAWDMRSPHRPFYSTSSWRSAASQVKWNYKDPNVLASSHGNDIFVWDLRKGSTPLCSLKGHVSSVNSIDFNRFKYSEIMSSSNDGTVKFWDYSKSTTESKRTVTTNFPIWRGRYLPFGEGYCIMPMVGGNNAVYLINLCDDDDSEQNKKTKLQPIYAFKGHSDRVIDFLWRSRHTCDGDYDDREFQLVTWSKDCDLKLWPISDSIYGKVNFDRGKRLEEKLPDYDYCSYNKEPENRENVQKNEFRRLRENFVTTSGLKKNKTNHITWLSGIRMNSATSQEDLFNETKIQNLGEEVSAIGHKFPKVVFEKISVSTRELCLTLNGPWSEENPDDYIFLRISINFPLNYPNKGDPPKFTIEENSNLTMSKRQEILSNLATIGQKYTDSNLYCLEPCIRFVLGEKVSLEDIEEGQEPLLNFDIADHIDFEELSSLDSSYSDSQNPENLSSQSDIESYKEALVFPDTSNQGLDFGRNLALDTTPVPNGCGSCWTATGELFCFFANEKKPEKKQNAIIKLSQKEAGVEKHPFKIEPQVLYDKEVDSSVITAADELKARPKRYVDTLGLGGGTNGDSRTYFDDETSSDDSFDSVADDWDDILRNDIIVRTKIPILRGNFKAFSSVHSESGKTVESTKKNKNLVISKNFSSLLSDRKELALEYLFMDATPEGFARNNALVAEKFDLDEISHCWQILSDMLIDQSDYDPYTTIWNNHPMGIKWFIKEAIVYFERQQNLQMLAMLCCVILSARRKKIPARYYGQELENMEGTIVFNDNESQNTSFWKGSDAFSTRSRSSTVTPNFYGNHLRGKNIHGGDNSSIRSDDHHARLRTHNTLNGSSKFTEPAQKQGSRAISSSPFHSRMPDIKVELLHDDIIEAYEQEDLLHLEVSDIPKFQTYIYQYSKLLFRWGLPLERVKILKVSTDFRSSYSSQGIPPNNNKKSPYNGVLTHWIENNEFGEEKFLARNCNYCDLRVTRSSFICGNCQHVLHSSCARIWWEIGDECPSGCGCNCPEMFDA

B1: Seh1 (natural protein, UniProt P53011 1-349, looked up)
chain: MQPFDSGHDDLVHDVVYDFYGRHVATCSSDQHIKVFKLDKDTSNWELSDSWRAHDSSIVAIDWASPEYGRIIASASYDKTVKLWEEDPDQEECSGRRWNKLCTLNDSKGSLYSVKFAPAHLGLKLACLGNDGILRLYDALEPSDLRSWTLTSEMKVLSIPPANHLQSDFCLSWCPSRFSPEKLAVSALEQAIIYQRGKDGKLHVAAKLPGHKSLIRSISWAPSIGRWYQLIATGCKDGRIRIFKITEKLSPLASEESLTNSNMFDNSADVDMDAQGRSDSNTEEKAELQSNLQVELLSEHDDHNGEVWSVSWNLTGTILSSAGDDGKVRLWKATYSNEFKCMSVITAQQ
notes: Seh1, S. cerevisiae, endogenous subunit of the SEAC (SEACAT, core); Native protein of the purified complex; six copies in the SEAC; source: endogenous, yeast cells expressing Sea4-TAP; in lysate and co-purified with Sea4-TAP (IgG Dynabeads, TEV elution)
B1: binds (Sea4-TAP); binds (Sea3).

— paper PMC9646525, “Cryo-EM structure of the SEA complex” (Nature, 2022)
